These results are taken from US10253086B2, “CD20 therapies, CD22 therapies, and combination therapies with a CD19 chimeric antigen receptor (CAR)-expressing cell” (Novartis AG, priority 2015, dated 2019).

The assay has as its system CD19 and CD22. As to the kind of experiment: NFAT assay of bispecific CAR19/CAR22 constructs. The assay is classed as cell-based. Here is the method: The bispecific CD19-CD22 and CD22-CD19 constructs described above were tested in an NFAT assay, as described in the Examples below. As controls, an anti-CD19 alone CAR and an anti-CD22 alone CAR were used.

B1: CD22-CD19: bispecific scFv tandem fusion CAR, hCD22-2 and humanized anti-CD19 (104876) (protein)
scFv: EVQLQQSGPGLVKPSQTLSLTCAISGDSVSSNSAAWNWIRQSPSRGLEWLGRTYYRSKWYNDYAVSVKSRITINPDTSKNQFSLQLNSVTPEDTAVYYCARDLGWIAVAGTFDYWGQGTLVTVSSGGGGSGGGGSGGGGSQSALTQPASVSGSPGQSITISCTGTSSDVGGYNYVSWYQQHPGKAPKLMIYDVSKRPSGVSNRFSGSKSGNTASLTISGLQAEDEADYYCSSYTSSSLNHVFGTGTKVTVLTGGGGSGGGGSGGGGSGGGGSEIVMTQSPATLSLSPGERATLSCRASQDISKYLNWYQQKPGQAPRLLIYHTSRLHSGIPARFSGSGSGTDYTLTISSLQPEDFAVYFCQQGNTLPYTFGQGTKLEIKGGGGSGGGGSGGGGSQVQLQESGPGLVKPSETLSLTCTVSGVSLPDYGVSWIRQPPGKGLEWIGVIWGSETTYYQSSLKSRVTISKDNSKNQVSLKLSSVTAADTAVYYCAKHYYYGGSYAMDYWGQGTLVTVSS
As to B1, the “activity in NFAT assay” value is given as “active against their targets”.
